From patent publication US20260242478A1 (published 2026)
Where no end group is shown, it is not given here.

B1: Phage-2099 (peptide)
peptide: LGNWCIPEWMCYGM
modifications: cysteine pairing not given here; also: fused to phage pIII (clonal phage display)
notes: Clonal phage of the Peptide-180 library

Target: T1, Anti-PSMA Fab (SEQ ID NOs: 19, 20)
T1 construct: Biotinylated Fab captured on neutravidin coated plates in the phage ELISA; also called 006 PSMA Fab
Experiment: phage ELISA; PSMA Fab on plate pre-incubated with PSMA antigen as competitor, anti-M13 HRP
Description: (§1) Clonal phage were harvested as crude supernatants and screened via standard ELISAs. […] Prior to the addition of clonal phage. wells were incubated with blocking buffer and PSMA antigen or blocking buffer alone. Without washing or aspirating, clonal phage supernatants were then added to the wells and incubated for a short time. Wells were then washed followed by detection of bound phage using a horse radish conjugated anti-M13 antibody.

| Binder | Phage binding ELISA, Anti-PSMA Fab signal in the presence of PSMA |
| --- | --- |
| LMKWCIPDWMCSHV (Clonal phage of the peptide-180 library) [Phage-2131] | 0.0763 |
| VTAWCIPEWMCVGV (Clonal phage of the peptide-180 library) [Phage-2122] | 0.0929 |
| EMIWCRPAWMCEGI (Clonal phage of the peptide-180 library) [Phage-2118] | 0.0702 |
| ILKACIPDWMCEGS (Clonal phage of the peptide-180 library) [Phage-2124] | 0.0604 |
| EIKWCVPQWMCENQ (Clonal phage of the peptide-180 library) [Phage-2117] | 0.0643 |
| WDKWCIPEWMCVTQ (Clonal phage of the peptide-180 library) [Phage-2127] | 0.1 |
| EFKWCTPPWMCQWD (Clonal phage of the peptide-180 library) [Phage-2125] | 0.101 |
| EIHLCKPPWMCDWL (Clonal phage of the peptide-180 library) [Phage-2120] | 0.109 |
| SDKWCIPPWMCEVA (Clonal phage of the peptide-180 library) [Phage-2126] | 0.0724 |
| EIKWCRPGWMCKVR (Clonal phage of the peptide-180 library) [Phage-2123] | 0.0583 |
| LVKWCTPPWMCESQ (Clonal phage of the peptide-180 library) [Phage-2130] | 0.0701 |
| DGLLCRPLWMCQFL (Clonal phage of the peptide-180 library) [Phage-2128] | 0.0771 |
| AEKWCIPPWMCEWV (Clonal phage of the peptide-180 library) [Phage-2121] | 0.105 |
| PLPWCIPVWMCSMI (Clonal phage of the peptide-180 library) [Phage-2129] | 0.161 |
| YAKWCIPEWMCAVS (Clonal phage of the peptide-180 library) [Phage-2119] | 0.12 |

Target: T2, Anti-PSMA Fab (SEQ ID NOs: 19, 20)
T2 construct: Biotinylated and captured on neutravidin coated plates in the phage ELISA; also called 006 PSMA Fab
Experiment: phage binding ELISA; biotinylated anti-PSMA Fab on neutravidin plate, PSMA antigen as competitor, anti-M13 HRP detection
Description: as §1

| Binder | Anti-PSMA Fab signal in the presence of PSMA |
| --- | --- |
| GVNWCIPDWMCVGM [Phage-2104] | 0.0692 |
| VHNWCIPSWMCEGL [Phage-2107] | 0.0717 |
| WENWCTPSWMCSVL [Phage-2116] | 0.118 |
| MERWCIPEWMCATT [Phage-2102] | 0.0637 |
| QEKWCIPMWMCESL [Phage-2106] | 0.0796 |
| GEIWCIPRWMCESF [Phage-2115] | 0.0672 |
| EWKWCTPSWMCEDA [Phage-2105] | 0.0652 |
| VVKWCSPPWMCDFL [Phage-2111] | 0.0713 |
| LENWCKPAWMCRGS [Phage-2109] | 0.0678 |
| SAMLCKPQWMCDGF [Phage-2108] | 0.0821 |
| SENWCIPSWMCQGF [Phage-2103] | 0.0813 |
| MNTWCKPAWMCEGL [Phage-2113] | 0.127 |
| VDPLCRPAWMCFGM [Phage-2112] | 0.0801 |
| SERWCIPEWMCSMP [Phage-2114] | 0.0625 |
| FEKWCIPPWMCAVH [Phage-2110] | 0.138 |

Target: T3, Anti-PSMA Fab (SEQ ID NOs: 19, 20)
T3 construct: also called 006 PSMA Fab
Experiment: phage ELISA; biotinylated PSMA Fab on neutravidin plate, clonal phage supernatant, anti-M13-HRP detection;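 also: wells were preincubated with blocking buffer containing PSMA antigen or with blocking buffer only, then phage supernatant was added without washing for a brief incubation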
Description: as §1

| Binder | Phage binding ELISA, Anti-PSMA Fab (SEQ ID NOs: 19, 20) signal |
| --- | --- |
| EMKLCRPAWMCEYM [Phage-2141] | 1.69 |
| IPKWCTPVWMCEGM [Phage-2142] | 1.69 |
| EGKWCIPEWMCSAS [Phage-2134] | 1.7 |
| TERWCVPAWMCTLV [Phage-2135] | 1.7 |
| FEMLCTPPWMCVGL [Phage-2133] | 1.7 |
| VYKWCTPPWMCTQM [Phage-2136] | 1.7 |
| EHKWCIPSWMCADM [Phage-2140] | 1.69 |
| DANWCKPTWMCAGF [Phage-2132] | 1.7 |
| LEKWCTPSWMCIGI [Phage-2139] | 1.7 |
| VQKWCIPEWMCAVA [Phage-2138] | 1.7 |
| VLKWCIPTWMCETQ [Phage-2137] | 1.7 |

Target: T4, Anti-PSMA Fab (SEQ ID NOs: 19, 20)
T4 construct: In the phage ELISA the Fab was biotinylated and captured on neutravidin coated plates; also called 006 PSMA Fab
Experiment: phage binding ELISA; biotinylated PSMA Fab captured on neutravidin plate, bound phage detected with anti-M13-HRP
Description: as §1

| Binder | Anti-PSMA Fab (SEQ ID NOs: 19, 20) signal |
| --- | --- |
| EAKWCIPAWMCSGV (Clonal phage of the Peptide-180 library) [Phage-2101] | 1.73 |
| INMWCIPAWMCQNT (Clonal phage of the Peptide-180 library) [Phage-2100] | 1.73 |
| B1 | 1.73 |

Target: T3, Anti-PSMA Fab (SEQ ID NOs: 19, 20)
Experiment: phage ELISA; biotinylated PSMA Fab on neutravidin plate pre-incubated with PSMA antigen as competitor, anti-M13-HRP detection
Description: as §1

| Binder | Phage binding ELISA, Anti-PSMA Fab signal in the presence of PSMA |
| --- | --- |
| EMKLCRPAWMCEYM [Phage-2141] | 0.0727 |
| IPKWCTPVWMCEGM [Phage-2142] | 0.0647 |
| EGKWCIPEWMCSAS [Phage-2134] | 0.0777 |
| TERWCVPAWMCTLV [Phage-2135] | 0.0741 |
| FEMLCTPPWMCVGL [Phage-2133] | 0.0639 |
| VYKWCTPPWMCTQM [Phage-2136] | 0.0779 |
| EHKWCIPSWMCADM [Phage-2140] | 0.108 |
| DANWCKPTWMCAGF [Phage-2132] | 0.109 |
| LEKWCTPSWMCIGI [Phage-2139] | 0.0773 |
| VQKWCIPEWMCAVA [Phage-2138] | 0.0584 |
| VLKWCIPTWMCETQ [Phage-2137] | 0.0908 |

Target: T2, Anti-PSMA Fab (SEQ ID NOs: 19, 20)
Experiment: phage binding ELISA; biotinylated anti-PSMA Fab on neutravidin plate, clonal phage supernatant, anti-M13 HRP detection
Description: as §1

| Binder | Anti-PSMA Fab (SEQ ID NOs: 19, 20) signal |
| --- | --- |
| GVNWCIPDWMCVGM [Phage-2104] | 1.73 |
| VHNWCIPSWMCEGL [Phage-2107] | 1.73 |
| WENWCTPSWMCSVL [Phage-2116] | 1.72 |
| MERWCIPEWMCATT [Phage-2102] | 1.73 |
| QEKWCIPMWMCESL [Phage-2106] | 1.73 |
| GEIWCIPRWMCESF [Phage-2115] | 1.72 |
| EWKWCTPSWMCEDA [Phage-2105] | 1.73 |
| VVKWCSPPWMCDFL [Phage-2111] | 1.72 |
| LENWCKPAWMCRGS [Phage-2109] | 1.72 |
| SAMLCKPQWMCDGF [Phage-2108] | 1.72 |
| SENWCIPSWMCQGF [Phage-2103] | 1.73 |
| MNTWCKPAWMCEGL [Phage-2113] | 1.72 |
| VDPLCRPAWMCFGM [Phage-2112] | 1.72 |
| SERWCIPEWMCSMP [Phage-2114] | 1.72 |
| FEKWCIPPWMCAVH [Phage-2110] | 1.72 |

Target: T1, Anti-PSMA Fab (SEQ ID NOs: 19, 20)
Experiment: phage ELISA; biotinylated PSMA Fab on neutravidin plate, bound phage detected with anti-M13 HRP
Description: as §1

| Binder | Phage binding ELISA, Anti-PSMA Fab signal |
| --- | --- |
| LMKWCIPDWMCSHV (Clonal phage of the peptide-180 library) [Phage-2131] | 1.71 |
| VTAWCIPEWMCVGV (Clonal phage of the peptide-180 library) [Phage-2122] | 1.71 |
| EMIWCRPAWMCEGI (Clonal phage of the peptide-180 library) [Phage-2118] | 1.72 |
| ILKACIPDWMCEGS (Clonal phage of the peptide-180 library) [Phage-2124] | 1.71 |
| EIKWCVPQWMCENQ (Clonal phage of the peptide-180 library) [Phage-2117] | 1.72 |
| WDKWCIPEWMCVTQ (Clonal phage of the peptide-180 library) [Phage-2127] | 1.71 |
| EFKWCTPPWMCQWD (Clonal phage of the peptide-180 library) [Phage-2125] | 1.71 |
| EIHLCKPPWMCDWL (Clonal phage of the peptide-180 library) [Phage-2120] | 1.72 |
| SDKWCIPPWMCEVA (Clonal phage of the peptide-180 library) [Phage-2126] | 1.71 |
| EIKWCRPGWMCKVR (Clonal phage of the peptide-180 library) [Phage-2123] | 1.71 |
| LVKWCTPPWMCESQ (Clonal phage of the peptide-180 library) [Phage-2130] | 1.71 |
| DGLLCRPLWMCQFL (Clonal phage of the peptide-180 library) [Phage-2128] | 1.71 |
| AEKWCIPPWMCEWV (Clonal phage of the peptide-180 library) [Phage-2121] | 1.71 |
| PLPWCIPVWMCSMI (Clonal phage of the peptide-180 library) [Phage-2129] | 1.71 |
| YAKWCIPEWMCAVS (Clonal phage of the peptide-180 library) [Phage-2119] | 1.72 |

Target: T4, Anti-PSMA Fab (SEQ ID NOs: 19, 20)
Experiment: phage binding ELISA on captured PSMA Fab, wells pre-incubated with PSMA antigen as competitor
Description: as §1

| Binder | Anti-PSMA Fab signal in the presence of PSMA |
| --- | --- |
| EAKWCIPAWMCSGV (Clonal phage of the Peptide-180 library) [Phage-2101] | 0.0654 |
| INMWCIPAWMCQNT (Clonal phage of the Peptide-180 library) [Phage-2100] | 0.128 |
| B1 | 0.078 |
